In US10683486B2, “Methods for producing hepatocytes” (BioLamina AB, priority 2015, dated 2020):

Experiments:
Type in all cases: cell-based, human
hESC-derived hepatocytes [1] = assay: Immunostaining of hepatocyte markers and cytochrome P450 expression (hepatocyte maturation)
Procedure: (§1) Differentiation was initiated at 40% confluence, by replacing serum-free medium mTESR1 (Stem Cell Technologies) with endoderm differentiation medium—RPMI 1640 containing 1×B27 (Life Technologies), 100 ng/mL Activin A (PeproTech) and 50 ng/mL Wnt3a (R&D). The medium was changed every 24 hours, for 72 hours. On day 4, endoderm differentiation medium was replaced with hepatoblast differentiation medium, and this was renewed every second day for a further five days. The medium consisted of KO-DMEM (Life Technologies), Serum Replacement (Life Technologies), 0.5% Glutamax (Life Technologies), 1% non-essential amino acids (Life Technologies), 0.2% β-mercaptoethanol (Life Technologies) and 1% dimethyl sulofxide (Sigma) for 5 days. At Day 9, differentiating cells were cultured in hepatocyte maturation medium HepatoZYME (Life Technologies) containing 1% Glutamax (Life Technologies), supplemented with 10 ng/mL hepatocyte growth factor (Peprotech) and 20 ng/mL oncostatin m (Peprotech).
(§2) Immunocytochemistry analysis was subsequently performed on hESC-derived hepatocytes. Cell cultures were fixed in 100% ice-cold methanol at −20 degrees Celsius for 30 minutes, and adjacent cells were pre-washed twice with PBS buffer at room temperature. Cell monolayers were blocked with 0.1% PBS-Tween solution containing 10% bovine serum albumin for 1 hour. Subsequently, the monolayers were incubated with primary antibodies diluted in PBS-0.1% Tween/1% BSA at 4 degrees Celsius overnight. After 24 hours, the primary antibodies were removed and the fixed monolayers were washed three times with PBS-0.1% Tween/1% BSA. Cells were incubated with appropriate secondary antibodies diluted in PBS-0.1% Tween/1% BSA for one hour at room temperature and washed with three times with PBS. Cultures were then mounted with PermaFluor™ Aqueous Mounting Medium and counterstained with NucBlue Hoescht 33342. The cells were imaged with the Zeiss Axio Observer Z1 microscope with LD PlanNeoFluar objective lenses, and a Zeiss AxioCamMR3 camera was used for image acquisition. The images were processed through Zeiss Axiovision SE 64 Rel 4.8 and analyzed using Zeiss Axiovision version 4.9.1.0. The percentage of positive cells and standard deviation was estimated from at least five random fields of view.
Post-hepatoblast specification, cell cultures were differentiated toward hepatocytes. Hepatocyte specification was assessed by immunostaining for albumin (ALB), E-cadherin (E CAD), cellular proliferation marker (Ki67), cytochrome p450 2D6 (CYP2D6), and cytochrome p450 3A4 (CYP3A4).
FIG. 5 is a set of nine photomicrographs of hepatic cells on day 18 of differentiation.
Given that cell organisation and cell division are important factors in hepatocyte function, hepatocyte metabolic capacity in vitro was studied. Stem cell derived hepatocytes were first examined for cytochrome P450 expression using well characterised antisera. CYP3A and CYP1A2 activity were measured from days 16-26 using pGlo technology. CYP activity was expressed as relative light units (RLU) per milliliter of media per milligram of protein. Levels of significance were measured by student t-test.
FIG. 6 is a set of six photomicrographs and two bar graphs of gene expression in hepatic cells.

[2] = tested on: endoderm and hepatic cells differentiated from H9 hESCs; assay: Immunostaining of endoderm and hepatoblast markers (hepatoblast specification)
Procedure: H9 human embryonic stem cells (hESCs) were cultured and maintained in a humidified 37° C., 5% CO2 incubator. Three different substrates were then prepared in 96-well plates. The first substrate was pre-coated with Matrigel® (MG), and served as a control. The second substrate was coated with 5 micrograms per square centimeter (μg/cm^2) of laminin-521 (LN-521).
as §1, §2
Next, the efficiency of the differentiation process was measured. FIG. 4 is a set of 15 photomicrographs of endoderm and hepatic cells grown on the three different substrates, 10× or 20× magnification (indicated by scale), on day 3 of differentiation.
FOXA2 was expressed on all substrates at day 3. […] SOX17 staining was more varied across the three substrates; it was lowest on MG and highest on LN-521. As cell differentiation progressed and hepatic fate was specified, cells began expressing high levels of hepatoblast markers. AFP, HNF4a, and CK19 were expressed in the majority of cells on all three substrates. […] As shown, hepatoblast specification on all three matrices appeared equivalent and highly efficient.

hESC-derived hepatocytes [3] = assay: Biliary efflux of CDFDA; conditions: 2 μM CDFDA for 30 minutes; versus the MG substrate
Procedure: To determine whether these cells were capable of biliary efflux, cells were treated with 5(6)-carboxy-2′,7′-dichlorofluorescein diacetate (CDFDA), which was metabolised to fluorescent CDF and effluxed by multidrug resistance associated protein 2 (MRP2). hESC-derived hepatocytes were incubated with 2 μM of 5(6)-carboxy-2′,7′dichlorofluorescein diacetate (CDFDA) for 30 minutes. Cultures were then washed with ice-cold PBS containing calcium and magnesium. Cells were either collected for imaging or retained for quantification of efflux. For fluorescent quantification, hepatic maturation was replaced and cells incubated at 37 degrees Celsius for 30 minutes. The efflux of CDFDA from cells into media was measured by fluorescence spectroscopy at […] using a FLUOStar Omega multi-mode microplate reader.
The results are shown in the bottom row (C) of photomicrographs.

“LN-521: substrate coated with 5 μg/cm^2 of laminin-521, the protein formed by joining α5, β2 and γ1 chains” was tested, and the “Albumin, percentage of positive cells and standard deviation” value (hESC-derived hepatocytes [1]; day 18 of differentiation) was 89.5% ± 8.7, the “E CAD, percentage of positive cells and standard deviation” value (hESC-derived hepatocytes [1]; day 18 of differentiation) was 67.4% ± 4.4 and the “Ki67, percentage of positive cells and standard deviation” value (hESC-derived hepatocytes [1]; day 18 of differentiation, proliferation marker) was 17.4% ± 6.2. For the same substance, the “CYP2D6, percentage of positive cells and standard deviation” value (hESC-derived hepatocytes [1]; immunostaining, FIG. 6) was 85.7% ± 5.7, the “CYP3A, percentage of positive cells and standard deviation” value (hESC-derived hepatocytes [1]; immunostaining, FIG. 6) was 91.3% ± 3.7 and the “AFP, percentage of positive cells and standard deviation” value ([2]; day 3 of differentiation) was 98.3% ± 0.9. The “CK19, percentage of positive cells and standard deviation” value ([2]; day 3 of differentiation) was 98.5% ± 1.0, the “FOXA2, percentage of positive cells and standard deviation” value ([2]; day 3 of differentiation) was 80.4% ± 3.5 and the “HNF4A, percentage of positive cells and standard deviation” value ([2]; day 3 of differentiation) was 86.4% ± 2.3. The “SOX17, percentage of positive cells and standard deviation” value ([2]; day 3 of differentiation) was 92.6% ± 1.8, the “increase in cell size of differentiated hepatocytes” value ([2]; see CK19 photomicrographs) was “approximately 2 fold” and the biliary efflux (hESC-derived hepatocytes [3]) was “more active biliary efflux”.
